Assay results as given in article doi:10.1101/2024.08.08.606885.

Legend:
[1] = biological target: SARS-CoV-2 JN.1 RBD (SARS-CoV-2) (UniProt P0DTC2); assay: BLI; […]; 10x kinetics buffer, […]; global fit, 1:1 binding model; […]
[2] = biological target: SARS-CoV-2 BA.2.86 S (Acro Biosystems, SPN-C524y) (SARS-CoV-2); assay: cryo-EM structure

Substance	Kd [1] [nM]	koff [1] [s⁻¹]	kon [1] [M⁻¹ s⁻¹]	stoichiometry N [2]
TRI2-2 homotrimeric miniprotein inhibitor (designed binder)	6.19	0.00175	282000	–
SARS-CoV-2 BA.2.86 S (Acro Biosystems, SPN-C524y) (domain or fragment)	–	–	–	3
